The Human Domainome abundance scans (Beltran et al. 2025)
± gives the uncertainty stated by the source.

test: abundance fitness (aPCA) (normalised: wild type 0, dead -1); higher = more abundant; growth selection in yeast, the domain comes from the species named; settings: Homo sapiens

Substance | abundance fitness
Scaffold attachment factor B1 D73C, Q15424 | -0.206 ± 0.059
Scaffold attachment factor B1 D73E, Q15424 | -0.072 ± 0.067
Scaffold attachment factor B1 D73F, Q15424 | -0.494 ± 0.085
Scaffold attachment factor B1 D73G, Q15424 | -0.124 ± 0.049
Scaffold attachment factor B1 D73H, Q15424 | -0.443 ± 0.098
Scaffold attachment factor B1 D73K, Q15424 | -0.652 ± 0.12
Scaffold attachment factor B1 D73L, Q15424 | -0.245 ± 0.059
Scaffold attachment factor B1 D73M, Q15424 | -0.468 ± 0.1
Scaffold attachment factor B1 D73N, Q15424 | -0.091 ± 0.097
Scaffold attachment factor B1 D73P, Q15424 | -0.278 ± 0.068
Scaffold attachment factor B1 D73Q, Q15424 | -0.362 ± 0.11
Scaffold attachment factor B1 D73R, Q15424 | -0.288 ± 0.056
Scaffold attachment factor B1 D73S, Q15424 | -0.243 ± 0.061
Scaffold attachment factor B1 D73T, Q15424 | -0.231 ± 0.056
Scaffold attachment factor B1 D73V, Q15424 | -0.23 ± 0.053
Scaffold attachment factor B1 D73W, Q15424 | -0.513 ± 0.056
Scaffold attachment factor B1 D73Y, Q15424 | -0.375 ± 0.073
Scaffold attachment factor B1 E42C, Q15424 | -0.346 ± 0.063
Scaffold attachment factor B1 E42D, Q15424 | -0.881 ± 0.099
Scaffold attachment factor B1 E42F, Q15424 | -0.587 ± 0.076
Scaffold attachment factor B1 E42H, Q15424 | -0.686 ± 0.12
Scaffold attachment factor B1 E42I, Q15424 | -0.422 ± 0.057

Substance | abundance fitness
Scaffold attachment factor B1 E42K, Q15424 | -0.852 ± 0.1
Scaffold attachment factor B1 E42L, Q15424 | -0.188 ± 0.061
Scaffold attachment factor B1 E42M, Q15424 | -0.15 ± 0.074
Scaffold attachment factor B1 E42N, Q15424 | -0.736 ± 0.11
Scaffold attachment factor B1 E42P, Q15424 | -0.976 ± 0.18
Scaffold attachment factor B1 E42Q, Q15424 | -0.26 ± 0.083
Scaffold attachment factor B1 E42R, Q15424 | -0.903 ± 0.053
Scaffold attachment factor B1 E42S, Q15424 | -0.605 ± 0.056
Scaffold attachment factor B1 E42T, Q15424 | -0.776 ± 0.076
Scaffold attachment factor B1 E42V, Q15424 | -0.53 ± 0.053
Scaffold attachment factor B1 E42Y, Q15424 | -0.619 ± 0.1
Scaffold attachment factor B1 E59D, Q15424 | -0.15 ± 0.074
Scaffold attachment factor B1 E59F, Q15424 | -0.637 ± 0.071
Scaffold attachment factor B1 E59G, Q15424 | -0.153 ± 0.076
Scaffold attachment factor B1 E59H, Q15424 | -0.087 ± 0.063
Scaffold attachment factor B1 E59I, Q15424 | -0.071 ± 0.067
Scaffold attachment factor B1 E59K, Q15424 | -0.152 ± 0.084
Scaffold attachment factor B1 E59L, Q15424 | -0.15 ± 0.052
Scaffold attachment factor B1 E59M, Q15424 | -0.131 ± 0.064
Scaffold attachment factor B1 E59N, Q15424 | -0.131 ± 0.065
Scaffold attachment factor B1 E59Q, Q15424 | -0.19 ± 0.096
Scaffold attachment factor B1 E59R, Q15424 | -0.078 ± 0.074

Substance | abundance fitness
Scaffold attachment factor B1 E59S, Q15424 | -0.111 ± 0.051
Scaffold attachment factor B1 E59T, Q15424 | -0.082 ± 0.053
Scaffold attachment factor B1 E59V, Q15424 | -0.125 ± 0.046
Scaffold attachment factor B1 E59W, Q15424 | -0.408 ± 0.11
Scaffold attachment factor B1 E59Y, Q15424 | -0.343 ± 0.095
Scaffold attachment factor B1 E66C, Q15424 | -0.284 ± 0.069
Scaffold attachment factor B1 E66F, Q15424 | -0.256 ± 0.061
Scaffold attachment factor B1 E66G, Q15424 | -0.218 ± 0.052
Scaffold attachment factor B1 E66H, Q15424 | -0.49 ± 0.075
Scaffold attachment factor B1 E66I, Q15424 | -0.261 ± 0.058
Scaffold attachment factor B1 E66K, Q15424 | -0.169 ± 0.082
Scaffold attachment factor B1 E66L, Q15424 | -0.133 ± 0.051
Scaffold attachment factor B1 E66M, Q15424 | -0.137 ± 0.046
Scaffold attachment factor B1 E66N, Q15424 | -0.202 ± 0.075
Scaffold attachment factor B1 E66P, Q15424 | -0.909 ± 0.097
Scaffold attachment factor B1 E66Q, Q15424 | -0.014 ± 0.078
Scaffold attachment factor B1 E66R, Q15424 | -0.202 ± 0.047
Scaffold attachment factor B1 E66S, Q15424 | -0.164 ± 0.056
Scaffold attachment factor B1 E66T, Q15424 | -0.11 ± 0.076
Scaffold attachment factor B1 E66V, Q15424 | -0.244 ± 0.05
Scaffold attachment factor B1 E66W, Q15424 | -0.43 ± 0.059
Scaffold attachment factor B1 E66Y, Q15424 | -0.288 ± 0.075

Substance | abundance fitness
Scaffold attachment factor B1 E68A, Q15424 | -0.233 ± 0.05
Scaffold attachment factor B1 E68C, Q15424 | -0.586 ± 0.056
Scaffold attachment factor B1 E68D, Q15424 | -0.224 ± 0.073
Scaffold attachment factor B1 E68G, Q15424 | -0.289 ± 0.045
Scaffold attachment factor B1 E68H, Q15424 | -0.359 ± 0.057
Scaffold attachment factor B1 E68I, Q15424 | -0.469 ± 0.05
Scaffold attachment factor B1 E68K, Q15424 | -0.352 ± 0.07
Scaffold attachment factor B1 E68M, Q15424 | -0.461 ± 0.054
Scaffold attachment factor B1 E68N, Q15424 | -0.346 ± 0.056
Scaffold attachment factor B1 E68P, Q15424 | -0.802 ± 0.051
Scaffold attachment factor B1 E68Q, Q15424 | -0.279 ± 0.049
Scaffold attachment factor B1 E68R, Q15424 | -0.341 ± 0.051
Scaffold attachment factor B1 E68S, Q15424 | -0.236 ± 0.052
Scaffold attachment factor B1 E68T, Q15424 | -0.314 ± 0.054
Scaffold attachment factor B1 E68V, Q15424 | -0.265 ± 0.053
Scaffold attachment factor B1 E68W, Q15424 | -0.836 ± 0.07
Scaffold attachment factor B1 E74A, Q15424 | -0.071 ± 0.067
Scaffold attachment factor B1 E74C, Q15424 | -0.18 ± 0.073
Scaffold attachment factor B1 E74D, Q15424 | -0.312 ± 0.074
Scaffold attachment factor B1 E74F, Q15424 | -0.175 ± 0.069
Scaffold attachment factor B1 E74G, Q15424 | -0.202 ± 0.063
Scaffold attachment factor B1 E74H, Q15424 | -0.608 ± 0.12

Substance | abundance fitness
Scaffold attachment factor B1 E74I, Q15424 | -0.215 ± 0.086
Scaffold attachment factor B1 E74K, Q15424 | -0.213 ± 0.089
Scaffold attachment factor B1 E74L, Q15424 | -0.125 ± 0.053
Scaffold attachment factor B1 E74M, Q15424 | -0.119 ± 0.068
Scaffold attachment factor B1 E74N, Q15424 | -0.366 ± 0.09
Scaffold attachment factor B1 E74P, Q15424 | -0.309 ± 0.063
Scaffold attachment factor B1 E74Q, Q15424 | -0.32 ± 0.088
Scaffold attachment factor B1 E74R, Q15424 | -0.074 ± 0.051
Scaffold attachment factor B1 E74S, Q15424 | -0.053 ± 0.053
Scaffold attachment factor B1 E74T, Q15424 | -0.183 ± 0.083
Scaffold attachment factor B1 E74V, Q15424 | -0.157 ± 0.055
Scaffold attachment factor B1 E74W, Q15424 | -0.135 ± 0.055
Scaffold attachment factor B1 E74Y, Q15424 | -0.226 ± 0.09
Scaffold attachment factor B1 E76A, Q15424 | -0.161 ± 0.064
Scaffold attachment factor B1 E76C, Q15424 | -0.113 ± 0.054
Scaffold attachment factor B1 E76G, Q15424 | -0.096 ± 0.053
Scaffold attachment factor B1 E76I, Q15424 | -0.291 ± 0.093
Scaffold attachment factor B1 E76K, Q15424 | -0.294 ± 0.096
Scaffold attachment factor B1 E76L, Q15424 | -0.199 ± 0.062
Scaffold attachment factor B1 E76M, Q15424 | -0.2 ± 0.086
Scaffold attachment factor B1 E76N, Q15424 | -0.169 ± 0.067
Scaffold attachment factor B1 E76P, Q15424 | -0.069 ± 0.083
